Publication PMC9801508, “A Cell-Permeant Nanobody-Based Degrader That Induces Fetal Hemoglobin” (ACS Central Science, 2022)

What was measured:
[1] = target: T1, BCL11A extended zinc finger domain (exZnF23) (Homo sapiens, UniProt Q9H165); assay: pull-down; wt2D9 and BCL11A (Figure S1b); details in the Supporting Information
T1 construct: Monomeric by SEC-MALS; also called exZnF23A; BCL11A exZnF23; source: E. coli, purified

[2] = target: T1, BCL11A extended zinc finger domain …; assay: pull-down; read by SDS-PAGE (Figure 1C); the legend names only an SDS-PAGE analysis; who was held is not told; methods in the Supporting Information; conditions: both partners purified
[3] = target: T2, endogenous, full-length BCL11A (Homo sapiens (HUDEP-2 cells), UniProt Q9H165); assay: pull-down; purified 2D9 or ZF5.3-2D9 added into the lysate of HUDEP-2 cells; endogenous BCL11A detected (the legend calls it immunoprecipitation); conditions: one partner purified
T2 construct: BCL11A, transcription factor and repressor of fetal globin genes, endogenous in HUDEP-2 cells; also called endogenous BCL11A; source: endogenous, HUDEP-2 lysate; endogenous, in HUDEP-2 cells
T2 sequence (Q9H165 whole entry): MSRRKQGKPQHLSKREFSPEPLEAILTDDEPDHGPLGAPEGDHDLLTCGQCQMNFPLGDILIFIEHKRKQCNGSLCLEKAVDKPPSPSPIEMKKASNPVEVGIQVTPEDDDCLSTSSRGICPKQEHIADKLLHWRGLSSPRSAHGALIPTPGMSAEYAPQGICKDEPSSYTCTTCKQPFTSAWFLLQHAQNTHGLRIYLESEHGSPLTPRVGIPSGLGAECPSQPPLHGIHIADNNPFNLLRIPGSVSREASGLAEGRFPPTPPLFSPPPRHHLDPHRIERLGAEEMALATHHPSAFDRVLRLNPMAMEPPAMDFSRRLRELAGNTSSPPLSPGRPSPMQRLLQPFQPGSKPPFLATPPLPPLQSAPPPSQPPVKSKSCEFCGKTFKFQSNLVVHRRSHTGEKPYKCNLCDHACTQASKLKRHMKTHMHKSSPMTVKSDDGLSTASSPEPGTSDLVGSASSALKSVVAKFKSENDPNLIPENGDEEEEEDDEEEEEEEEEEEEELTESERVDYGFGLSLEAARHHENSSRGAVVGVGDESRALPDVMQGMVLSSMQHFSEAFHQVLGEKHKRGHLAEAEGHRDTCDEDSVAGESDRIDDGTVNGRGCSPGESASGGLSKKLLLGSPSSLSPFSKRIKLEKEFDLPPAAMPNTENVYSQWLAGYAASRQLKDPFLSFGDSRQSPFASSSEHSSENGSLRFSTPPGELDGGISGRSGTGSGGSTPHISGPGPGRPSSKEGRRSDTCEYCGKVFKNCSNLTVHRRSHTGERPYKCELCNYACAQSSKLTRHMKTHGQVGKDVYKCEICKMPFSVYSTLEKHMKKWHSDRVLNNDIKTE

T1 sequence (Q9H165 whole entry, looked up, the tested form may be a part): as the sequence (Q9H165 whole entry) above

Row | binding result [1] | binding result [2] | binding result [3] | Binder
1 | binds |  |  | Nanobody wt2D9 (initial hit) (VHH, initial synthetic nanobody hit of the yeast surface display screen; parent of 2D9 (2D9_V102G): as the chain of PDB 7UTG with V instead of G at 102; source: E. coli) VHH: QVQLVESGGGLVQAGGSLRLSCAASGSIFVNNAMGWYRQAPGKERELVAAISASGGSTYYADSVKGRFTISRDNAKNTVYLQMNSLKPEDTAVYYCAADQDVYPYEYWGQGTQVTVSS
2 |  | binds | binds | Nanobody 2D9 (2D9_V102G) (VHH, also called Nb 2D9; source: purified) VHH: QVQLVESGGGLVQAGGSLRLSCAASGSIFVNNAMGWYRQAPGKERELVAAISASGGSTYYADSVKGRFTISRDNAKNTVYLQMNSLKPEDTAVYYCAADQDGYPYEYWGQGTQVTVSS
3 |  | binds |  | Nanobody 2D9_W108L (VHH, wt2D9 is as 2D9 of PDB 7UTG but with V at 102; By its name a single mutant of wt2D9, a sibling of 2D9_V102G; the reversion at 102 against PDB 7UTG is worked out from the names) VHH: QVQLVESGGGLVQAGGSLRLSCAASGSIFVNNAMGWYRQAPGKERELVAAISASGGSTYYADSVKGRFTISRDNAKNTVYLQMNSLKPEDTAVYYCAADQDVYPYEYLGQGTQVTVSS
